Data reported in patent US20130224191A1, “NOTUM PROTEIN MODULATORS AND METHODS OF USE” (priority 2010, published 2013).
“Also recorded” adds a separate entry of the source.

Key:
[1] = test system: Wnt3A-mediated induction of luciferase in the 293.TCF cells; assay: Wnt3A canonical signaling assay, bioactivity of Notum constructs; format: cell-based, human; details: without added Notum
How it was run: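 293.TCF cells (HEK 293T stably carrying a TCF-driven GFP/luciferase reporter), 2.5×10^4 per well, serum-starved 23 h, then given Notum proteins 1 h before Wnt3A or control L-cell conditioned medium.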

macaque Notum N141D = assay: Neutralization of point mutated macaque Notum, TCF assay; format: cell-based
From the text: (§1) Similarly, the macaque residue at this position was point mutated to the human residue (N141D). […] However, these point mutants differed in their ability to be neutralized by SC2.D2.2 (FIG. 26).

Notum = molecular target: T1, Notum (Homo sapiens, UniProt Q6P988); assay: 293.TCF assay with rhWnt3A, standard and preincubation protocol; format: cell-based
T1 sequence (Q6P988 20-496): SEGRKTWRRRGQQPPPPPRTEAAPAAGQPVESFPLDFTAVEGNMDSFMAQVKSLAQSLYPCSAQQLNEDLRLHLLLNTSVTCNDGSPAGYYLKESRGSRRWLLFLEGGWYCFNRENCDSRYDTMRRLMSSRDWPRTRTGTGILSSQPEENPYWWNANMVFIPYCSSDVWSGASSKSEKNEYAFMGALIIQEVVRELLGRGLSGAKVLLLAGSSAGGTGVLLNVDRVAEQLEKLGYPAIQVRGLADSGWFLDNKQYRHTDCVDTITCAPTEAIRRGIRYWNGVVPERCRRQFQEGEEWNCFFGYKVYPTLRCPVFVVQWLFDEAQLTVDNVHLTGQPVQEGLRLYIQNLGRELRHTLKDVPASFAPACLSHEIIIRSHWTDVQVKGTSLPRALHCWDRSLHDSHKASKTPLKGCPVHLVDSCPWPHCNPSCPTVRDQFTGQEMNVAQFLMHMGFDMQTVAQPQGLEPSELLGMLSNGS
Method: In order to determine the kinetics of Notum mediated antagonism of Wnt3A signaling, recombinant Notum alone or in the presence of SC2.D2.2 was preincubated with recombinant human Wnt3A (rhWnt3A) for 2 hours at 37° C., prior to addition of the complexes to 293.TCF cells. This resultant induction of luciferase by the rhWnt3A was compared to that observed using the standard protocol for the 293.TCF assay, in which Notum alone or Notum+SC2.D2.2 was added to the cells for two hours prior to the addition of rhWnt3A. […] Of interest however, is the preincubation of Notum and rhWnt3A prior to addition to the 293.TCF cells. In this case the response of the cells to rhWnt3A is reduced greatly (closed circles FIG. 27B).

human Notum D141N, D141S = assay: Neutralization of point mutated human Notum, 4-MUH assay; format: biochemical
Method: In addition to the assays described in Examples 23 and 24, a fluorescent esterase substrate, 4-methylumbelliferyl heptanoate (Sigma), can be used to measure the activity of hydrolases using standard assay conditions (Richardson and Smith, 2007, PMID: 17620441; Jacks and Kircher, 1967, PMID: 5582971). Briefly, 4-MUH was dissolved in DMSO to a final concentration of 1.2 mM. This substrate was diluted 1:10 into assay buffer (0.1M Tris, pH 7.5, 50 mM NaCl, 0.05% Brij) and incubated with defined amounts of Notum enzyme or point-mutated Notum enzymes, and enzymatic release of the fluorescent molecule 4-methylumbelliferone monitored (355 nm excitation, 460 nm emission) using a Wallac Victor3 Multilabel Counter (Perkin Elmer).
as §1

macaque Notum-Fc = assay: Neutralization of macaque Notum in 293.TCF assay; format: cell-based
Method: Using the 293.TCF cells, purified SC2.D2.2 and SC2.A106 antibodies were tested for their ability to neutralize murine Notum-His or macaque Notum-Fc activity as follows. 2.5×10^4 293.TCF cells were plated per well of a 96-well tissue culture plate in 50 μL of serum-free medium. After 23 hours of serum starvation, 10 μL of DMEM+0.2% FBS containing the Notum proteins at various concentrations were mixed with 15 μL of purified antibody at various concentrations, and allowed to incubate for 5 minutes at room temperature. The 25 μL antibody/Notum mixture was then added to the 293.TCF cells. After 1 hour, 25 μL of Wnt3A or control L-cell CM were added to each well. Eighteen hours after addition of CM, 100 μL of One-Glo solution (ProMega Corp.) was added to each well. The contents of each well were mixed thoroughly to lyse the cells, 100 μL of lysate transferred to black 96-well plates, and the luminescence read after 5 minutes.

B1: SC2.D2.2 (antibody, V domains shown)
VH: DVQLVESGGGLVQPGGSRKISCAASGFTFSSYGMHWVRQAPEKGLEWVAYISSSTVTTYYADTVKGRFTISRDNANNTLFLQMTSLRSEDTAMYYCSRQNWDGGYFDVWGAGTTVTVSS
VL: DIVLTQSLASLAVSLGQRATISCRASKSVSSSGYSYMHWYQQKPGQPPKLLIYLASNLESGVPARFSGSGSGTDFTLNIHPVEEEDAATYYCQHSRALPLTFGAGTKLELKR
notes: also called murine SC2.D2.2
- effect of antibody alone on induction of luciferase due to Wnt3A CM [1]: does not inhibit the induction of luciferase due to Wnt3A CM
- neutralization of mutant Notum protein (macaque Notum N141D): now enabled SC2.D2.2 to neutralize the mutant protein
- effect on response of cells to rhWnt3A (Notum; Notum complexed with antibody prior to preincubation with rhWnt3A, 2 hours at 37° C.): restores the sensitivity of the cells to rhWnt3A
- effect on Notum antagonism of rhWnt3A (Notum; standard protocol, 10 μg/mL antibody, 250 ng/mL rhWnt3A): blocks the ability of Notum to antagonize the rhWnt3A
- neutralization of mutant Notum protein (human Notum D141N, D141S): eliminated the ability of SC2.D2.2 to neutralize the resultant protein
- inhibition of macaque Notum activity (macaque Notum-Fc): did not inhibit; also recorded: without inhibiting murine or macaque versions of the protein
